Results taken from PMC8836807 (Science Advances, 2022).

Biological target: 6His-Nup60 aa27–539ΔHRΔFG-mGFP-StrepII (budding yeast (S. cerevisiae), UniProt P39705 27-539, ΔHR (aa48–162) | ΔFG (aa381–504))
Assay: GUV co-recruitment assay

binding result: binds
B1: 6His-SUMO-Nup2 aa83–136–TagmBFPII-StrepII (domain or fragment, budding yeast (S. cerevisiae), UniProt P32499 83-136, looked up)
chain: NSPTTESNSRLKALNLQFKAKVDDLVLGKPLADLRPLFTRYELYIKNILEAPVK
